Patent publication US20260124312A1 (Bicycle, published 2026)
*1 amine or outer side, *2 acyl side, *3 side chain or, on linkers, in order; H or OH if unused. Bridges are numbered along the chain shown (N, C = ends). Where no end group is shown, it is not given here. [ ]: non-standard residue; d: D form. The star is where a group is joined. DM1‑SS‑ = DM1-SS- (SPDB) linker/toxin, COc1cc2cc(c1Cl)N(C)C(=O)C[C@H](OC(=O)[C@H](C)N(C)C(=O)CCSSCCCC(=O)*)[C@]1(C)O[C@H]1[C@H](C)[C@@H]1C[C@@](O)(NC(=O)O1)[C@H](OC)/C=C/C=C(\C)C2; TATA = O=C(CC[*:1])N1CN(C(=O)CC[*:2])CN(C(=O)CC[*:3])C1; DM1‑SS(SO3H)‑ = DM1-SS(SO3H)- (SO3H-SPDB) linker/toxin; DM1‑SS‑(Me)‑ = DM1-SS-(Me)- (SPP) linker/toxin; PABC = O=C(OCc1ccc(N[*:1])cc1)[*:2]; Glutaryl = O=C(CCCC(=O)[*:2])[*:1]; hArg = N=C(N)NCCCC[C@H](N)C(=O)O; Cit = NC(=O)NCCC[C@H](N)C(=O)O; βAla = NCCC(=O)O; Sar = CNCC(=O)O

Key:
[1] = target: Human EphA2 (in house, 0.95 mol biotin/monomer) (Human) (UniProt P29317); assay: SPR (Biacore), biotinylated human EphA2 on streptavidin chip
Human EphA2 (in house, 0.95 mol biotin/monomer) (Human), sequence (P29317 25-534 limits assumed): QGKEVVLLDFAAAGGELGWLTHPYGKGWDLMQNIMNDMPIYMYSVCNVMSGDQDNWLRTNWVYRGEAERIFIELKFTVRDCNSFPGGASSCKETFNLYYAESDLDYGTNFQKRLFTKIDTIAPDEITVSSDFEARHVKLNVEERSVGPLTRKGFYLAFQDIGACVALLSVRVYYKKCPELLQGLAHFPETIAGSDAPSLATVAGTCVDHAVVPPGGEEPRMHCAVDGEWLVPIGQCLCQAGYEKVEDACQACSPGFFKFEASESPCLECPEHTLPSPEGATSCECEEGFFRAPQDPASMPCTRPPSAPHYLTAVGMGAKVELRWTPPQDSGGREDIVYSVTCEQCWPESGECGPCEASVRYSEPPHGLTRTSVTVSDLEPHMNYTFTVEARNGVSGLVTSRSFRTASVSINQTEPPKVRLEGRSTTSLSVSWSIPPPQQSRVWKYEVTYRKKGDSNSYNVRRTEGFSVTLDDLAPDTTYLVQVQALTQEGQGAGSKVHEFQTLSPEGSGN

Mouse EphA2 (Ecto) = target: T1, Mouse EphA2 (Ecto) (Mouse, UniProt Q03145 26-538); assay: FP competition vs Reference Compound C
T1 construct: extracellular domain
T1 sequence (Q03145 26-538): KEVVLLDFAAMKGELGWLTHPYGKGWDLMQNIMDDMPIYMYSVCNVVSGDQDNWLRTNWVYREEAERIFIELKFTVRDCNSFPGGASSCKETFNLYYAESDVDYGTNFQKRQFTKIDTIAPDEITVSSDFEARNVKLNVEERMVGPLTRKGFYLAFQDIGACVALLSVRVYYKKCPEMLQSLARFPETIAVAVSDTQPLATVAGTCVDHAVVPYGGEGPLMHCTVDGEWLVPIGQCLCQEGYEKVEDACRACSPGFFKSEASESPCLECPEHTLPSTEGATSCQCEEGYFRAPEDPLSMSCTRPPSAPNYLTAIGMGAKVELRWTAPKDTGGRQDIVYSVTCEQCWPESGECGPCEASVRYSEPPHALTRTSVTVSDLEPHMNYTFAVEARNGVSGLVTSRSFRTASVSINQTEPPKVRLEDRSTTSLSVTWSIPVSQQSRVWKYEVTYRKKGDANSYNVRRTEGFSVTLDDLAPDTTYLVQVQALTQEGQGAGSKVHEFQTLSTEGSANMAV

[2] = target: Mouse EphA2 Fc fusion (R&D Systems 639-A2) (Mouse) (UniProt Q03145); assay: SPR (Biacore), mouse EphA2-Fc captured by anti-human IgG
Mouse EphA2 Fc fusion (R&D Systems 639-A2) (Mouse), sequence (Q03145 26-538): as above

[3] = target: Rat EphA2 (in house, 1.4 mol biotin/monomer) (Rat) (UniProt D3ZBN3); assay: SPR (Biacore), biotinylated rat EphA2 on streptavidin chip

Binder	Kd [1] [nM]	koff [1] [s⁻¹]	kon [1] [M⁻¹ s⁻¹]	t1/2 [1] [min]	Ki (Mouse EphA2 (Ecto)) [nM]	Kd [2] [nM]	koff [2] [s⁻¹]	kon [2] [M⁻¹ s⁻¹]	t1/2 [2] [min]	Kd [3] [nM]	koff [3] [s⁻¹]	kon [3] [M⁻¹ s⁻¹]	t1/2 [3] [min]
{DM1‑SS‑}-[βAla][Sar][Sar][Sar][Sar][Sar][Sar][Sar][Sar][Sar][Sar]A[hArg]DCPLVNPLCLHPGWTC (linker 15-22-29 via TATA; not fully specified (C-terminus)) [BCY6031]	1.99	0.00495	2.49e+06	2.3									
{MMAE-PABC-Cit-Trp-Glutaryl}-[βAla][Sar][Sar][Sar][Sar][Sar][Sar][Sar][Sar][Sar][Sar]A[hArg]DCPLVNPLCLHPGWTC (linker 15-22-29 via TATA; not fully specified (C-terminus)) [BCY6034]	1.64	0.00365	2.23e+06	3.2									
ACPLVNPLCLHPGWTCLHG (linker 2-9-16 via TATA; not fully specified (C-terminus)) [Bicycle Compound 73]					7.27								
{MMAE-PABC-Cit-Val-Glutaryl}-[βAla][Sar][Sar][Sar][Sar][Sar][Sar][Sar][Sar][Sar][Sar]A[hArg]DCPLVNPLCLHPGWTC (linker 15-22-29 via TATA; not fully specified (C-terminus)) [BCY6033]	3.41	0.00343	999000	3.5		21.8	0.00637	292000	1.8	166	0.00442	26700	2.6

Continued by falling Kd [1], values first:

Kd [1] [nM]	koff [1] [s⁻¹]	kon [1] [M⁻¹ s⁻¹]	t1/2 [1] [min]	Ki (Mouse EphA2 (Ecto)) [nM]	Kd [2] [nM]	koff [2] [s⁻¹]	kon [2] [M⁻¹ s⁻¹]	t1/2 [2] [min]	Kd [3] [nM]	koff [3] [s⁻¹]	kon [3] [M⁻¹ s⁻¹]	t1/2 [3] [min]	Binder
2.42	0.00242	987000	4.8		18.3	0.00597	327000	1.9	28.8	0.00364	126000	3.2	{DM1‑SS(SO3H)‑}-[βAla][Sar][Sar][Sar][Sar][Sar][Sar][Sar][Sar][Sar][Sar]A[hArg]DCPLVNPLCLHPGWTC (linker 15-22-29 via TATA; not fully specified (C-terminus)) [BCY6082]
2.1	0.00527	2.52e+06	2.2										{DM1‑SS‑(Me)‑}-[βAla][Sar][Sar][Sar][Sar][Sar][Sar][Sar][Sar][Sar][Sar]A[hArg]DCPLVNPLCLHPGWTC (linker 15-22-29 via TATA; not fully specified (C-terminus)) [BCY6032]
